Among the data in PMC10981688, “PCSK9 stimulates Syk, PKCδ, and NF-κB, leading to atherosclerosis progression independently of LDL receptor” (Nature Communications, 2024) are Kd values, retold here.

Details in all cases: both partners purified
Assay [1] deals with T1, recombinant human PCSK9 with 6x His tag (proprotein convertase subtilisin/kexin type-9) (human, UniProt Q8NBP7 31-692).
T1 construct: proprotein convertase subtilisin/kexin type-9 (PCSK9), human, recombinant; written here as one chain; also called rhPCSK9-His; PCSK9-His
Description: BLI; BLItz system; PCSK9-His (hPCSK9, 500 nM, 120 s loading) immobilised on an anti-Penta-HIS sensor; association 120 s, dissociation 120 s; sensorgrams fit globally to a 1:1 binding model.

Assay [2] has as its target T2, recombinant human Syk (spleen tyrosine kinase) (human, UniProt P43405 1-635).
T2 construct: spleen tyrosine kinase (Syk), human, recombinant; also called rhSyk; source: bought: Abcam (ab60886)
The assay can be described thus: BLI; BLItz system; CAP1-mFc immobilised on an anti-mouse IgG Fc (AMC) sensor; Syk or PKCδ in the association step (120 s), dissociation 120 s; global 1:1 binding model.

Assay [3] has as its target T3, recombinant human PKCδ (protein kinase C delta) (human, UniProt Q05655 1-676).
T3 construct: protein kinase C delta (PKCδ), human, recombinant; also called rhPKCδ; source: bought: Abcam (ab60844)
The description is as above.

T3 sequence (Q05655 whole entry, stated change not applied): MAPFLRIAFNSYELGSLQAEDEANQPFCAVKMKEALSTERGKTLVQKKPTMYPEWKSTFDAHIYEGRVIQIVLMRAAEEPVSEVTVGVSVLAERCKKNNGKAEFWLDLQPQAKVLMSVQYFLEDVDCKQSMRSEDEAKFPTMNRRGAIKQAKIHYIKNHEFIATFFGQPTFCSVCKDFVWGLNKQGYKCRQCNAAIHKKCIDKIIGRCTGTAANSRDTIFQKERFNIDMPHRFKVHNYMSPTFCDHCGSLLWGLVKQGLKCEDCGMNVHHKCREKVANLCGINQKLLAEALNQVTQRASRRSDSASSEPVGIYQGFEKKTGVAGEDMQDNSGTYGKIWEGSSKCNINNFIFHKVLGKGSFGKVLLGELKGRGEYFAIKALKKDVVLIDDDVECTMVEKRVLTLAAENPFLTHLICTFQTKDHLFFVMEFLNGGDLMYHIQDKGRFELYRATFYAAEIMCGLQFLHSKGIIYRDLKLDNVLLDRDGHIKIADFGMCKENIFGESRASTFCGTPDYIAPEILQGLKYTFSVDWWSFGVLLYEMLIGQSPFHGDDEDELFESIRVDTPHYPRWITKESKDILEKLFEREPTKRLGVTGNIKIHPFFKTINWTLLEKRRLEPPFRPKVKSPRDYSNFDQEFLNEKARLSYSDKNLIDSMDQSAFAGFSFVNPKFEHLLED

B1: recombinant human CAP1 (adenylyl cyclase-associated protein 1) (natural protein, UniProt Q01518 1-475, looked up)
chain: MADMQNLVERLERAVGRLEAVSHTSDMHRGYADSPSKAGAAPYVQAFDSLLAGPVAEYLKISKEIGGDVQKHAEMVHTGLKLERALLVTASQCQQPAENKLSDLLAPISEQIKEVITFREKNRGSKLFNHLSAVSESIQALGWVAMAPKPGPYVKEMNDAAMFYTNRVLKEYKDVDKKHVDWVKAYLSIWTELQAYIKEFHTTGLAWSKTGPVAKELSGLPSGPSAGSCPPPPPPCPPPPPVSTISCSYESASRSSLFAQINQGESITHALKHVSDDMKTHKNPALKAQSGPVRSGPKPFSAPKPQTSPSPKRATKKEPAVLELEGKKWRVENQENVSNLVIEDTELKQVAYIYKCVNTTLQIKGKINSITVDNCKKLGLVFDDVVGIVEIINSKDVKVQVMGKVPTISINKTDGCHAYLSKNSLDCEIVSAKSSEMNVLIPTEGGDFNEFPVPEQFKTLWNGQKLVTTVTEIAG
notes: adenylyl cyclase-associated protein 1 (CAP1), human, recombinant; also called rhCAP1; hCAP1; source: bought: Abnova (H00010487-P01)
On to B1, for which, in assay [1], the equilibrium dissociation constant (Kd) was determined as 32 nM.

B2: human CAP1 whose carboxyl-terminal end was conjugated with the Fc region of mouse immunoglobulin (Fc fusion, UniProt Q01518 1-475, looked up)
chain: B1 chain
notes: adenylyl cyclase-associated protein 1 (CAP1), human; also called CAP1-mFc; hCAP1-mFc; source: Expi293F, transfected, purified to homogeneity; not shown: Fc (mouse immunoglobulin), C-terminal, kept
With B2, the Kd amounted to 5.96 nM in assay [2] and 322 nM in assay [3].
